In paper PMC10397247:

T1: 4H3843-bH
T1 chain: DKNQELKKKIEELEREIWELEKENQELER

T2: 4H3606-bH
T2 chain: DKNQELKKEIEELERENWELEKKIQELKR

T3: 4H3782-bH
T3 chain: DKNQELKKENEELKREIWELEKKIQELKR

T4: 4H607-bH
T4 chain: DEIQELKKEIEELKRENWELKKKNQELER

T5: 4H462-bH
T5 chain: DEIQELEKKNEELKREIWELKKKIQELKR

T6: 4H2697-bH
T6 chain: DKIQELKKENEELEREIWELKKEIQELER

T7: 4H953-bH
T7 chain: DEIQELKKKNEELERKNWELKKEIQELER

T8: 4H797-bH
T8 chain: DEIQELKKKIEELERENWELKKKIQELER

T9: 4H2618-bH
T9 chain: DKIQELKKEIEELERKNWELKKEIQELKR

T10: 4H3189-bH
T10 chain: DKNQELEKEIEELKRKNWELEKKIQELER

T11: 4H918-bH
T11 chain: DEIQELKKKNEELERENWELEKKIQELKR

T12: 4H72-bH
T12 chain: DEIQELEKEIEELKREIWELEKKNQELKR

T13: 4H4001-bH
T13 chain: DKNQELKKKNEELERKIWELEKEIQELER

T14: 4H568-bH
T14 chain: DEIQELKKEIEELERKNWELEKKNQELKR

T15: 4H2667-bH
T15 chain: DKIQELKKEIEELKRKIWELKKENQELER

T16: 4H2610-bH
T16 chain: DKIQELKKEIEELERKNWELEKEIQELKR

T17: 4H331-bH
T17 chain: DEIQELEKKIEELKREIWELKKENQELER

T18: 4H687-bH
T18 chain: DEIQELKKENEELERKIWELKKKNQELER

T19: 4H370-bH
T19 chain: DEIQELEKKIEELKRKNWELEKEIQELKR

T20: 4H883-bH
T20 chain: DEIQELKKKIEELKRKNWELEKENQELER

T21: 4H3427-bH
T21 chain: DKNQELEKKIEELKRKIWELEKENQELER

T22: 4H3185-bH
T22 chain: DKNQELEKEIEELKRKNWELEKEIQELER

T23: 4H2576-bH
T23 chain: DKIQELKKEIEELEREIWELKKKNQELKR

T24: 4H754-bH
T24 chain: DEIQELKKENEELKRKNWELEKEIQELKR

T25: 4H454-bH
T25 chain: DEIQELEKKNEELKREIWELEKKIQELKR

T26: 4H338-bH
T26 chain: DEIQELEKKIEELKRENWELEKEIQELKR

T27: 4H3855-bH
T27 chain: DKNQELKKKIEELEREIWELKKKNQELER

T28: 4H967-bH
T28 chain: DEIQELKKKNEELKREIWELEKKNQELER

T29: 4H3112-bH
T29 chain: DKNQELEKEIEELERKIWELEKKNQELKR

T30: 4H3354-bH
T30 chain: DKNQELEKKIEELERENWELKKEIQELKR

T31: 4H953-bA
T31 chain: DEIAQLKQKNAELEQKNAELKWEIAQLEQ

T32: 4H2729-bH
T32 chain: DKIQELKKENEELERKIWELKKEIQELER

T33: 4H908-bH
T33 chain: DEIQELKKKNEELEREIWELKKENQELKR

T34: 4H717-bH
T34 chain: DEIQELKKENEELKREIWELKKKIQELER

T35: 4H918-bA
T35 chain: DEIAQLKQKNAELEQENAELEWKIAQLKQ

T36: 4H3632-bH
T36 chain: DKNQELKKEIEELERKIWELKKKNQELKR

T37: 4H496-bH
T37 chain: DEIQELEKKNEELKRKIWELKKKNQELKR

T38: 4H496-bN
T38 chain: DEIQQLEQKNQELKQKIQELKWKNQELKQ

T39: 4H491-bN
T39 chain: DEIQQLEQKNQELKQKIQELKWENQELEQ

T40: 4H4001-bN
T40 chain: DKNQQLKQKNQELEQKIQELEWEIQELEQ

T41: 4H342-bN
T41 chain: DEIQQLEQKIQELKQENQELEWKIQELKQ

T42: 4H48-bN
T42 chain: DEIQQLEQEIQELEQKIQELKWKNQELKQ

T43: 4H3632-bN
T43 chain: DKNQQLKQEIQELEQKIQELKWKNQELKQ

T44: 4H3907-bH
T44 chain: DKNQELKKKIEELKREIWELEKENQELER

T45: 4H470-bH
T45 chain: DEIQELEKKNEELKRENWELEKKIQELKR

T46: 4H363-bH
T46 chain: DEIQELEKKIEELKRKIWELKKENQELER

T47: 4H3961-bH
T47 chain: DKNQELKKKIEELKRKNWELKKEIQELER


What was measured:
Assay in all cases: two-hybrid library CCNG1;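 further: natural log of median RNA to DNA barcode read ratio; higher means stronger binding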
[1] = biological target: T1, 4H3843-bH
[2] = biological target: T2, 4H3606-bH
[3] = biological target: T3, 4H3782-bH
[4] = biological target: T4, 4H607-bH
[5] = biological target: T5, 4H462-bH
[6] = biological target: T6, 4H2697-bH
[7] = biological target: T7, 4H953-bH
[8] = biological target: T8, 4H797-bH
[9] = biological target: T9, 4H2618-bH
[10] = biological target: T10, 4H3189-bH
[11] = biological target: T11, 4H918-bH
[12] = biological target: T12, 4H72-bH
[13] = biological target: T13, 4H4001-bH
[14] = biological target: T14, 4H568-bH
[15] = biological target: T15, 4H2667-bH
[16] = biological target: T16, 4H2610-bH
[17] = biological target: T17, 4H331-bH
[18] = biological target: T18, 4H687-bH
[19] = biological target: T19, 4H370-bH
[20] = biological target: T20, 4H883-bH
[21] = biological target: T21, 4H3427-bH
[22] = biological target: T22, 4H3185-bH
[23] = biological target: T23, 4H2576-bH
[24] = biological target: T24, 4H754-bH
[25] = biological target: T25, 4H454-bH
[26] = biological target: T26, 4H338-bH
[27] = biological target: T27, 4H3855-bH
[28] = biological target: T28, 4H967-bH
[29] = biological target: T29, 4H3112-bH
[30] = biological target: T30, 4H3354-bH
[31] = biological target: T31, 4H953-bA
[32] = biological target: T32, 4H2729-bH
[33] = biological target: T33, 4H908-bH
[34] = biological target: T34, 4H717-bH
[35] = biological target: T35, 4H918-bA
[36] = biological target: T36, 4H3632-bH
[37] = biological target: T37, 4H496-bH
[38] = biological target: T38, 4H496-bN
[39] = biological target: T39, 4H491-bN
[40] = biological target: T40, 4H4001-bN
[41] = biological target: T41, 4H342-bN
[42] = biological target: T42, 4H48-bN
[43] = biological target: T43, 4H3632-bN
[44] = biological target: T44, 4H3907-bH
[45] = biological target: T45, 4H470-bH
[46] = biological target: T46, 4H363-bH
[47] = biological target: T47, 4H3961-bH

Row | Binder | interaction score [1] | interaction score [2] | interaction score [3] | interaction score [4] | interaction score [5] | interaction score [6] | interaction score [7] | interaction score [8] | interaction score [9] | interaction score [10] | interaction score [11] | interaction score [12] | interaction score [13] | interaction score [14] | interaction score [15] | interaction score [16] | interaction score [17] | interaction score [18] | interaction score [19] | interaction score [20] | also measured
1 | DKNQELKKEIEELERKIWELKKKNQELKR [4H3632-bH] | – | – | – | – | – | – | – | – | – | – | – | – | – | – | – | – | – | – | – | – | interaction score [36]: -0.234; interaction score [37]: -2.56
2 | DEIQQLEQKIQELKQENQELEWKIQELKQ [4H342-bN] | – | – | – | – | – | – | – | – | – | – | – | – | – | – | – | – | – | – | – | – | interaction score [38]: 1.56; interaction score [39]: 1.47; interaction score [40]: -0.0564; interaction score [41]: 1.33; interaction score [42]: -1.99; interaction score [43]: 0.807
3 | DEIQELEKKIEELKRKIWELKKENQELER [4H363-bH] | – | – | – | – | – | – | – | – | – | – | – | – | – | – | – | – | – | – | – | – | interaction score [44]: 1.26; interaction score [45]: 0.465; interaction score [46]: 1.36; interaction score [47]: 0.532

More lines, main results first:

Row | interaction score [1] | interaction score [2] | interaction score [3] | interaction score [4] | interaction score [5] | interaction score [6] | interaction score [7] | interaction score [8] | interaction score [9] | interaction score [10] | interaction score [11] | interaction score [12] | interaction score [13] | interaction score [14] | interaction score [15] | interaction score [16] | interaction score [17] | interaction score [18] | interaction score [19] | interaction score [20] | Binder | also measured
4 | 0.428 | 0.997 | -0.423 | -0.288 | 1.13 | -0.13 | -1.02 | -0.388 | -2.22 | 0.354 | -0.153 | 0.879 | 0.47 | 1.22 | -0.792 | 1.39 | -0.139 | 0.522 | 1.24 | 1.68 | DKIQELKKEIEELERKNWELEKEIQELKR [4H2610-bH] | –
5 | 1.11 | -2.37 | -0.128 | -1.37 | 0.615 | -0.201 | -0.152 | -0.961 | 1.01 | 0.969 | -0.721 | 0.621 | 1.28 | 0.102 | 0.467 | -0.788 | 1.97 | -0.475 | 1.62 | -0.465 | DKIQELKKEIEELEREIWELKKKNQELKR [4H2576-bH] | interaction score [21]: 1.73; interaction score [22]: 0.137; interaction score [23]: 0.71; interaction score [24]: -2.65; interaction score [25]: 1.67; interaction score [26]: 0.794; interaction score [27]: 0.305; interaction score [28]: -3.3; interaction score [29]: 0.913; interaction score [30]: -0.952; interaction score [31]: -1.63; interaction score [32]: 1.93; interaction score [33]: -1.34; interaction score [34]: -1.86; interaction score [35]: -0.341
